According to patent US6066621A, “Synthetic peptides for the treatment of myasthenia gravis” (Yeda Research and Development Co. Ltd., priority 1995, dated 2000):
Each block holds one molecule with its values, some of them ahead of it. Where no end group is shown, it is not given here. The star is where a group is joined. Biotin = O=C1N[C@H]2[C@H](CS[C@H]2CCCCC(=O)*)N1; Ahx = NCCCCCC(=O)O

Legend:
[1] = system: T cell line TCSJL195-212
Procedure: T cell lines and clones specific to p195-212 were established from lymph node cells of high (SJL) responder mouse strain by the method described by Brocke et al. (1990a), supra, and designated TCSJL195-212 line (Mozes, E. et al. (1991), supra; see also Kirshner et al. (1994), supra).
Cells (10^4 per well) of the T cell Line TCSJL195-212 or TCBALB/c259-271 were incubated in the presence of irradiated syngeneic spleen cells (0.5×10^6), either p195-212 or p259-271 (10 μM) and various concentrations of the dual epitope analogs 207Ala-262Lys or 262Lys-207Ala for 48 h. Thereafter, ^3 H-thymidine was added and 16 h later plates we harvested.

[2] = system: peripheral blood lymphocytes (PBL) of myasthenia gravis patients; conditions: 96 h
Procedure: Peripheral blood lymphocytes (PBL) of myasthenia gravis patients and of the appropriate control donors (2×10^5 cells/well) were assayed in microtiter plates in 0.2 ml enriched medium containing 10% autologous serum, in the presence of different doses of the peptides p195-212 and the analog 207Ala for 96 h, followed by an overnight pulse with 0.5 μCi of ^3 H-thymidine. Cells were harvested and radioactivity determined. Inhibition of the proliferative responses was done by adding different doses of 207Ala into the incubation mixture at the same time as the pathogenic peptide p195-212.

[3] = molecular target: p195-212 presented by antigen-presenting cells of MG patients (HLA class II) (human)
[4] = molecular target: p259-271 presented by antigen-presenting cells of MG patients (HLA class II) (human)
[5] = molecular target: MHC class II on human antigen presenting cells
[6] = molecular target: MHC Class II molecules of BALB/c mice (on syngeneic spleen cells used as antigen-presenting cells)
[7] = molecular target: MHC Class II molecules of BALB/c mice (on syngeneic spleen cells used as antigen-presenting cells); remark: listed apart in the source
[8] = molecular target: MHC Class II molecules of BALB/c mice (on syngeneic spleen cells used as antigen-presenting cells); remark: listed apart in the source
[9] = molecular target: MHC class II of SJL mice (on antigen presenting cells)
[10] = molecular target: MHC class II of SJL mice (on antigen presenting cells); assay: flow cytometry, biotinylated peptide on SJL antigen presenting cells, PE-streptavidin

Molecule: DTPYLDITYHFVAQRLPL [207Ala]
inhibition of the proliferative response of the TCSJL195-212 line to p195-212 [1]: more than 99%
inhibition of proliferative responses of PBL, all three patients [2]: 77-100%

Molecule: VIVDLIPSTSSAV [262Asp analog of p259-271]
% inhibition of the p259-271 induced proliferative response of PBL (three MG patients) [5]: 78 % inhibition

Molecule: VIVKLIPSTSSAV [262Lys analog of p259-271]
% inhibition of the p259-271 induced proliferative response of PBL (three MG patients) [5]: 100 % inhibition
% of inhibition of the p259-271 specific proliferative response of TCBALB/c259-271 [6]: < 93 % inhibition
inhibition of the helper activity of TCBALB/c259-271 (p259-271 specific antibody production) [7]: < 80 % inhibition
inhibition of the proliferative response of lymph node cells of p259-271 immunized BALB/c mice to p259-271 [8]: < 64.7 % inhibition

Molecule: DTPYLDITYHFVAQRLPL [207Ala analog of p195-212]
inhibition of the p195-212 specific proliferative response of TCSJL195-212 [9]: > 99 % inhibition

More lines, now with the values ahead:

proliferative response of PBL, stimulation index (SI) (stimulation index) [3]: 6.3
proliferative response of PBL, stimulation index (SI) (stimulation index) [4]: 4.1
Molecule: peripheral blood lymphocytes (PBL) of myasthenia gravis patients (cells without a defined receptor)

% inhibition of the p259-271 induced proliferative response of PBL (three MG patients) [5]: 85.6 % inhibition
Molecule: VIVELIPDTSSAV [266Asp analog of p259-271]

fold affinity against 207Ala-262Lys [10]: 10 fold
Molecule: {Biotin-Ahx}-VIVKLIPSTSSAVDTPYLDITYHFVAQRLPL [biotinylated dual analog 262Lys-207Ala]
